# Data reported in patent publication US20240173395A1.
# Molecular target: ZIKV sE-WT protein (Zika virus)
# Test: SPR (BIOCORE8000), sE amine-coupled on CM5 chip, antibody as mobile phase
substance,measurement,value
2A10G6 antibody,Kd,9.13 nM
